# Measured values from publication PMC7925086.
# Molecular target: Leishmania RNA virus 1 isolate LRV1-4 major capsid protein (Leishmania RNA virus 1 (isolate LRV1-4, from Leishmania guyanensis strain M5313))
# Assay: cryo-EM structure; single-particle reconstruction of purified LRV1 virus-like particles, 0.16 mg/ml, in 20 mM sodium phosphate pH 7.4, 300 mM NaCl, 5 mM beta-mercaptoethanol; icosahedral symmetry; 3.65 Å
substance,measurement,value
Leishmania RNA virus 1 isolate LRV1-4 major capsid protein (natural protein),stoichiometry N,120 copies
